Test results from patent US20090305399A1.
Where two headings read alike, the source gives them in different places. Ends that are not written are not given here.

Tests used:
Assay in all cases: cell-based or functional assay
[1] = target: human Kv1.3 channel (human) (UniProt P22001)
[2] = target: human Kv1.1 channel (human) (UniProt Q09470)
[3] = target: human Kv1.3 channel (human) (UniProt P22001); remark: listed apart in the source

Chain of human Kv1.3 channel (human) (P22001 whole entry): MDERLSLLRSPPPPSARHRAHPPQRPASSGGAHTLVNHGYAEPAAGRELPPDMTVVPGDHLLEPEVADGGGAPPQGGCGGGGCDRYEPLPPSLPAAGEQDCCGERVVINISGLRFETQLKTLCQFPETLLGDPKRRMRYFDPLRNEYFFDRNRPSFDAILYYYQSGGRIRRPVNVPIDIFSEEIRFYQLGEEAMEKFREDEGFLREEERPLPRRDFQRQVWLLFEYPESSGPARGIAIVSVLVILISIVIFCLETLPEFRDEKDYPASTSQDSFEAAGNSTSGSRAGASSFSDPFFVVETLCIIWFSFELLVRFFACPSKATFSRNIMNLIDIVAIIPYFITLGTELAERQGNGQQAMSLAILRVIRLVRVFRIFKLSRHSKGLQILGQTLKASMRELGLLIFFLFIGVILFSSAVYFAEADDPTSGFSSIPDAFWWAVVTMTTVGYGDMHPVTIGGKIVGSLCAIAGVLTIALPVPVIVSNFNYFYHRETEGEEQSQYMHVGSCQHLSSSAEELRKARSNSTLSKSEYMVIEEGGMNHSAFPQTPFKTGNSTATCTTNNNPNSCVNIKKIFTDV
Chain of human Kv1.1 channel (human) (Q09470 whole entry): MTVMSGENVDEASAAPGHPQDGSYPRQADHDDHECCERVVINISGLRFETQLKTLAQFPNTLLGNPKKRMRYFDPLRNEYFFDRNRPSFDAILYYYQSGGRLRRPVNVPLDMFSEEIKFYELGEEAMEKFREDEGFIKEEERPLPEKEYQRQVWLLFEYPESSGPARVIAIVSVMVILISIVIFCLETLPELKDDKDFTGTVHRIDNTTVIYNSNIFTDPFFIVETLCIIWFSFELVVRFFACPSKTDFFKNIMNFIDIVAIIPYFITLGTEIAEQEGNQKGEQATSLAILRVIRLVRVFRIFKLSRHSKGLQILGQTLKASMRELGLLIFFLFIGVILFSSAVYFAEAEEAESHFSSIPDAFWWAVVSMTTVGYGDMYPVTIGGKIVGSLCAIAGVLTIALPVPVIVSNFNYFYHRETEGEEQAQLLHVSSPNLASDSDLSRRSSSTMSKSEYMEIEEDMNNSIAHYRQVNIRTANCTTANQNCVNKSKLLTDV

CHO-derived Fc-L10-ShK[2-35] (Fc fusion)
IC50 of block of outward potassium current, whole cell patch clamp [1]: 0.115 nM

E. coli-derived Fc-L-OSK1 (Fc fusion)
Kv1.3 IC50 by WCVC (nM), HEK293/Kv1.3 cells [1]: 3.2 nM

OSK1 (wild-type) (peptide)
Kv1.3 IC50, whole cell patch clamp ePhys [1]: 0.039 nM | Kv1.3 Selectivity (=Kv1.1/Kv.3 IC50) [1]: 5 fold | Kv1.1 IC50, whole cell patch clamp ePhys [2]: 0.202 nM

PEG-Fc-L10-OSK1, Pool # 3 (Fc fusion)
IC50 Sustained [1]: 0.256 nM

OSK1 analogue E16K, K20D (peptide)
WB/IFNg IC50 (human whole blood IFNg response) [1]: 1.32 nM | WB/IL-2 IC50 (human whole blood IL-2 response) [1]: 1.58 nM

Fc-L5-ShK[2-35] (Fc fusion)
IC50 of block of outward potassium current, whole cell patch clamp [1]: 0.1 nM

PEG-Fc-L10-SHK(2-35), Pool # 3 (Fc fusion)
IC50 Sustained [1]: 0.175 nM

E. coli-derived Fc-L-ShK[2-35] (Fc fusion)
Kv1.3 IC50 by IWQ (nM), CHO/Kv1.3 cells [1]: 2.8 nM | Kv1.3 IC50 by WCVC (nM), HEK293/Kv1.3 cells [1]: 1.3 nM

Fc-L25-ShK[2-35] (Fc fusion)
IC50, whole cell patch clamp on HEK293/Kv1.3 cells [1]: 0.15 nM

E. coli-derived Shk[1-35]-L-Fc (Fc fusion)
Kv1.3 IC50 by IWQ (nM), CHO/Kv1.3 cells [1]: 2.4 nM

E. coli-derived Fc-L-ShK[1-35] (Fc fusion)
Kv1.3 IC50 by WCVC (nM), HEK293/Kv1.3 cells [1]: 1.4 nM

PEG-Fc-L10-OSK1, Pool # 2 (Fc fusion)
IC50 Sustained [1]: 0.332 nM

E. coli-derived ShK[2-35]-L-Fc (Fc fusion)
Kv1.3 IC50 by IWQ (nM), CHO/Kv1.3 cells [1]: 4.9 nM

GGGGS-Osk1 (peptide)
WB/IFNg IC50 (human whole blood IFNg response) [1]: 2.2 nM | WB/IL-2 IC50 (human whole blood IL-2 response) [1]: 1.36 nM

synthetic OSK1 toxin peptide
IC50 of block of outward potassium current, whole cell patch clamp [1]: 0.039 nM

PEG-Fc-L10-SHK(2-35), Pool # 2 (Fc fusion)
IC50 Sustained [1]: 0.158 nM

20k PEG-OSK1[Ala29, 1Nal34] (peptide)
WB/IFNg IC50 (human whole blood IFNg response) [1]: 0.081 nM | WB/IL-2 IC50 (human whole blood IL-2 response) [1]: 0.049 nM

20k PEG-ShK (peptide)
WB/IFNg IC50 (human whole blood IFNg response) [1]: 0.065 nM | WB/IL-2 IC50 (human whole blood IL-2 response) [1]: 0.046 nM

SCIDTIPKSRCTAFQCKHSMKYRLSFCRKTCGTC (not fully specified; ends and bridges not checked) [synthetic ShK[2-35]]
IC50 of block of outward potassium current, whole cell patch clamp [3]: 0.049 nM
